Experiment: yeast display, Sf9 membrane polyspecificity reagent, FACS + sequencing; frameworks hold sequencing errors
Procedure, shortened: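 After 36–48 hours of galactose induction, yeast (Saccharomyces cerevisiae BJ5465) displaying a synthetic nanobody library were stained at 4 °C for 1 hour with 10% biotinylated, detergent-solubilized Sf9 membrane reagent. Streptavidin microbeads enriched the stained cells before FACS sorting into low and high (top ~1%) gates on anti-HA and streptavidin fluorescence. Each clone's polyreactivity label reflects its gate of origin.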

Sequence | polyreactivity (PSR sort gate)
QVHLEESGGCLVQAGGSLRLSCAASGLFARNAMGWYRQAPGKERELVAAINRSGGSTYYADSVKGPFTISRDNAKNTVYLQMKSLKPEDTAVYYCNQAFTHTKDLSPIAYEYVFWGQGTQVTVSS | low polyreactivity
QVHLEESGGGLVQAGGSLRLSWAASGATFSNYTMGWDRQAPGNERELVAAISRTGGSTYYADSVNGRFTISRDNAKNHVYLQISSLEPEDNAVYYCAAICYVGRYYYWGQGNQVTVSS | high polyreactivity
QVHLLDSVGGLVQAGGSLRLSCAACGRIVGTNAMGWYRQAPGKERELVATITRGGGNTYYADSVKGRFTISRDNAKNTVYLQLNSLKPEDTAGYDCAAKFHRFAWYSHYAYWGQGTQVTVSS | low polyreactivity
QVHLLESGGGLVQAGGSLRLSCAASGRTFYDYTMGWYRQAPGKERELVAVISKRGGSTYYADSVKGRFTISRDNAKNTVYLQMNSLKPEDTAVYYCAAKSGRNVYQKVDYWGQGTQVTVSS | high polyreactivity
QVHLQESGDGLVQPVGSQRLSCAASGYISGNYYMGWYRQAPGTERELVAGIDAFGSSTNYADCVKGRFTISRYNAKNSVYLQMYRLKPEDTAVYYCAAPPDGDRLFSYWGQGTQVTVSS | low polyreactivity
QVHLQESGGGLVQAGGSLRLSCAASGNIVDADIMGWYRQAPGKERELVASITDGGSTNYADSVKGRFTISRDNAKNTVYLQMNSLKPEDTAVYYCAAIGYPDIPTYFDYDSEYFYWGQGTQVTVSS | low polyreactivity
QVHLQESGGGLVQAGGSLRLSCAASGNNSPVGVLGRYRQAPGKERELVATINFGGSSYYADSVKGRFTISRDNAKNTVYLQMNSLKREDTAVYYFAYCGQGTQVTVSS | low polyreactivity
QVHLQESGVVLMQARGNLRMSCAASGYISTQYHMDWYRQAPGKERELVARIDYGAITNYADSVKGRFTIRRDNAKNTVYLQMTSLKPEDTAVYYCAVYSGDDYYHDYWGHGTQVTVSS | low polyreactivity
QVHLQESRGGLVQAGGSLRLSCAASGIIFDNPNMGCYRQAPGKERELVATINSGATTNYADSVKGRFTISRDNAKNTVYLQMNSLIPEDTAVYYCAVDLSPTYFYYWGQGTQVTVSS | high polyreactivity
QVHLVASGGGLVQAGGSLRLRCAASGFTIDTYAKGWYRQAPGKERDLVAGISWSGGSTYYADSVKGRFTISRDNAKNTVYLQRNSLNPEDTAVYYCAADYAGYPGRTRQRPGYDYWGQGTQVTVSS | low polyreactivity
QVHLVDSAGGLVQAGGSLRLSCAASGNIFDYNGMGWYRQAPGKERELVAGINWSGGSTYYADSVKGRFTISRDNAKNTVYLQMNSLTPEDTAVYYCAAECVYDWYPFWRAIYTYDYWGQGTQVTVSS | low polyreactivity
QVHLVDSCGALVQAGGSLSIRCAASGLTIYRYAKGWNRQEPRKETEVVAAISSADRTYYADSVKGRFTISRDNAKNTVYLQMNSLKPEDTAVYYCAARANYFGWTKSYYYWGQGTQVTVSS | high polyreactivity
QVHLVDSGAGLVQAGGSLRLSCAASGYTFYANAMGWYRQAPGKERELVAGINRSGSTYYADSVKGRFTISRDNAKNTVYLQMNSLKPEDTAVYYCATAWHRGVRGRTSGAFDYWGQGTQVTVSS | high polyreactivity
QVHLVDSGGGLVQAGGILRLSCPATGSIFVYNTMGWYRQAPGKERELVADITSGTSTYYADSVKGRFTISRDNAKNTVYLQMNSLKPEDTAVYYSAAERWYKYYAYDYWGQGTQVTVSS | low polyreactivity
QVHLVDSGGGLVQAGGSLRLSCAASGRIYYVYAMGGYRQAPGQERELVAGITSTGGSTYYADSVKGRFTISRDNAKSTVYLQINRLNPVDTAVYYGATDYGYYDYWGQGTQVTVSS | low polyreactivity
QVHLVDSGGGLVQAGGSLRLSCAASGSTIKTYTKGWYRQAPGKERELVAGITSGVSTSYADSVKGRFTISRDNAKNTVYLQMNSLKPEDTAVYYCNADAYLVIYFYTVRDYGYDYWGQGTQVTVSS | low polyreactivity
QVHLVDSGGGLVQAGGSLRLTCAASGITFYRYAMGWYRQAPWKERELVAAITGGGRTYYADSVKGRFTISRDNAKNTVYLQMNSLKPEDTAVYYCNVRTLHSVRGYDYWGQGTQVTVSS | high polyreactivity
